# B1: Stu2 TOG1 domain ('TOG1-tail', 1–317) (domain or fragment, S. cerevisiae, UniProt P46675 1-317, looked up)
# chain: MSGEEEVDYTTLPLEERLTYKLWKARLEAYKELNQLFRNSVGDISRDDNIQIYWRDPTLFAQYITDSNVVAQEQAIVALNSLIDAFASSSLKNAHNITLISTWTPLLVEKGLTSSRATTKTQSMSCILSLCGLDTSITQSVELVIPFFEKKLPKLIAAAANCVYELMAAFGLTNVNVQTFLPELLKHVPQLAGHGDRNVRSQTMNLIVEIYKVTGNNSDLLEEILFKKLKPIQVKDLHKLFAKVGDEPSSSKMLFEWEKRELEKKRSQEEEARKRKSILSNDEGEYQIDKDGDTLMGMETDMPPSKQQSGVQIDTFS
# notes: Stu2 (Stu2p), S. cerevisiae, TOG1 domain with tail, residues 1-317; source: expression and purification previously described (Ayaz et al., 2012, 2014)
# B2: wild-type Stu2-eGFP (Stu2 residues 1–888, full-length; dimer) (natural protein, S. cerevisiae, UniProt P46675 1-888, looked up)
# chain: MSGEEEVDYTTLPLEERLTYKLWKARLEAYKELNQLFRNSVGDISRDDNIQIYWRDPTLFAQYITDSNVVAQEQAIVALNSLIDAFASSSLKNAHNITLISTWTPLLVEKGLTSSRATTKTQSMSCILSLCGLDTSITQSVELVIPFFEKKLPKLIAAAANCVYELMAAFGLTNVNVQTFLPELLKHVPQLAGHGDRNVRSQTMNLIVEIYKVTGNNSDLLEEILFKKLKPIQVKDLHKLFAKVGDEPSSSKMLFEWEKRELEKKRSQEEEARKRKSILSNDEGEYQIDKDGDTLMGMETDMPPSKQQSGVQIDTFSMLPEETILDKLPKDFQERITSSKWKDRVEALEEFWDSVLSQTKKLKSTSQNYSNLLGIYGHIIQKDANIQAVALAAQSVELICDKLKTPGFSKDYVSLVFTPLLDRTKEKKPSVIEAIRKALLTICKYYDPLASSGRNEDMLKDILEHMKHKTPQIRMECTQLFNASMKEEKDGYSTLQRYLKDEVVPIVIQIVNDTQPAIRTIGFESFAILIKIFGMNTFVKTLEHLDNLKRKKIEETVKTLPNFSIASGSTHSTIETNKQTGPMENKFLLKKSSVLPSKRVASSPLRNDNKSKVNPIGSVASASKPSMVAANNKSRVLLTSKSLATPKNVVANSTDKNEKLIEEYKYRLQKLQNDEMIWTKERQSLLEKMNNTENYKIEMIKENEMLREQLKEAQSKLNEKNIQLRSKEIDVNKLSDRVLSLENELRNMEIELDRNKKRNDTNLQSMGTISSYSIPSSTVSSNYGVKSLSSALPFKEEEDVRRKEDVNYERRSSESIGDLPHRVNSLNIRPYRKNGTGVSSVSDDLDIDFNDSFASEESYKRAAAVTSTLKARIEKMKAKSRREGTTRT
# notes: Stu2 (Stu2p), S. cerevisiae, residues 1-888; also called Stu2p; WT; source: E. coli Arctic Express, purified (His60 Superflow, Strep-Tactin); not shown: eGFP, C-terminal, kept
# Experiments:
# [1] = molecular target: T1, wild-type yeast αβ-tubulin (unpolymerized) (S. cerevisiae, UniProt P09733 1-447; P02557 1-457); assay: SEC; gel filtration on Shodex KW-803 in BRB80 (80 mM PIPES pH 6.9, 1 mM MgCl2, 1 mM EGTA) with 50 μM GTP; 1 μM TOG1-tail and 1 μM tubulin, alone or mixed, equilibrated on ice for 20 min; settings: both partners purified
# T1 construct: Tub1p (yeast α-tubulin), S. cerevisiae; Tub2p (yeast β-tubulin), S. cerevisiae; also called WT tubulin; unpolymerized tubulin
# [2] = molecular target: T2, side-blocked yeast αβ-tubulin (β:F281A) (S. cerevisiae, UniProt P09733 1-447; P02557 1-457, F281A); assay: as above; settings: both partners purified
# T2 construct: Tub1p (yeast α-tubulin), S. cerevisiae; Tub2p (yeast β-tubulin), S. cerevisiae; also called Tub2:F281A
# [3] = molecular target: T3, lateral-interface mutant yeast αβ-tubulin (α:H284A) (S. cerevisiae, UniProt P09733 1-447; P02557 1-457, H284A); assay: as above; settings: both partners purified
# T3 construct: Tub1p (yeast α-tubulin), S. cerevisiae; Tub2p (yeast β-tubulin), S. cerevisiae; also called Tub1-H284A; Tub1:H284A
# [4] = molecular target: T4, plus-end blocked yeast αβ-tubulin (β:T175R,V179R) (S. cerevisiae, UniProt P09733 1-447; P02557 1-457, T175R | V179R); assay: AUC; sedimentation velocity, 50,000 rpm, 20°C, absorbance at 229 nm; RB100 (25 mM Tris pH 7.5, 100 mM NaCl, 1 mM MgCl2, 1 mM EGTA) with 20 µM GTP; 0.3 µM tubulin with 0.1-3 µM TOG1-tail; isotherms fitted with a 1:1 effective-particle model; settings: both partners purified
# T4 construct: Tub1p (yeast α-tubulin), S. cerevisiae; Tub2p (yeast β-tubulin), S. cerevisiae; also called LR1
# [5] = molecular target: T4, plus-end blocked yeast αβ-tubulin …; assay: TIRF microscopy of Stu2-eGFP on stabilized microtubules; GTPγS-stabilized wild-type yeast microtubules held on the cover slip by His-Tag antibody; 100 nM Stu2-eGFP flowed in without or with 1 μM unpolymerized tubulin (wild type or mutant; mixed on ice for 10 min); imaging buffer; 30°C; settings: both partners purified
# [6] = molecular target: T5, minus-end blocked yeast αβ-tubulin (α:T350E) (S. cerevisiae, UniProt P09733 1-447; P02557 1-457, T350E); assay: as above; settings: both partners purified
# T5 construct: Tub1p (yeast α-tubulin), S. cerevisiae; Tub2p (yeast β-tubulin), S. cerevisiae; also called T350E α-tubulin
# [7] = molecular target: T6, wild-type yeast microtubules (polymerized wild-type yeast αβ-tubulin) (S. cerevisiae, UniProt P09733 1-447; P02557 1-457); assay: TIRF microscopy, fluorescence intensity of the Stu2-eGFP spot on the growing microtubule end; end intensity dynamic assay; 5-300 nM Stu2-eGFP (titration, hyperbolic fit; apparent) or 200 nM variant; 0.8 μM wild-type yeast tubulin; 30°C; settings: both partners purified
# T6 construct: Tub1p (yeast α-tubulin), S. cerevisiae; Tub2p (yeast β-tubulin), S. cerevisiae; Polymer of m2; also called microtubule lattice; microtubule end
# [8] = molecular target: T6, wild-type yeast microtubules …; assay: single-molecule TIRF microscopy, residence time on the growing microtubule end; 5 nM Stu2-eGFP variant with 1-1.5 µM unlabeled wild-type yeast tubulin; 100 ms streaming; one-phase exponential fit of the dwell times; 30°C; settings: both partners purified
# [9] = molecular target: the molecule itself; assay: single-molecule photobleaching (TIRF); fluorescence intensity trace of stationary Stu2-eGFP; steps of photobleaching counted
# [10] = molecular target: T7, β:T238A yeast microtubules (polymerized Tub2:T238A αβ-tubulin) (S. cerevisiae, UniProt P09733 1-447; P02557 1-457, T238A); assay: TIRF microscopy of Stu2-eGFP on dynamic microtubules (kymographs); axoneme-seeded unlabeled dynamic yeast microtubules on the cover slip; Stu2-eGFP variant (100-200 nM) with 0.5-0.8 μM unpolymerized yeast tubulin in imaging buffer (1X PEM, 50 µM GTP, 0.1 mg/mL BSA, antifade); 30°C; settings: both partners purified
# T7 construct: Tub1p (yeast α-tubulin), S. cerevisiae; Tub2p (yeast β-tubulin), S. cerevisiae; also called β:T238A microtubules; mutant microtubules
Binder,binding result [1],binding result [2],binding result [3],binding result [4],binding result [5],binding result [6],EC50 [7] [nM],characteristic residence time on the growing microtubule end [8] [s],stoichiometry N [9],binding result [10]
B1,binds,binds,binds,binds,–,–,–,–,–,–
B2,–,–,–,–,binds,binds,19,2.2,2,binds
